Results: article PMC12548092, “Exploring Helical Fraying Linked to Dynamics and Catalysis in Adenylate Kinase” (Biochemistry, 2025)

System: Nc1ncnc2c1ncn2[C@@H]1O[C@H](COP(=O)(O)OP(=O)(O)OP(=O)(O)O)[C@@H](O)[C@H]1O
Assay: purified protein
Details: varied substrate not named in table (text: substrates ATP and AMP)

Substance: AKeco (Escherichia coli K-12; E114A)
- Km: 36 ± 7 µM
- kcat: 254 s⁻¹
- kcat/Km: 7.1e+06 M⁻¹ s⁻¹

Substance: AKeco (Escherichia coli K-12)
- Km: 110 ± 9 µM
- kcat: 360 ± 11 s⁻¹
- kcat/Km: 3.3e+06 M⁻¹ s⁻¹
